This passage reports dimers per aggregate, percent of molecules in dimeric form and stoichiometry N results from PMC9846250.

Data set [1] can be described thus: dynamic light scattering; 25°C, 90°, purified paramyosin in PBS pH 7.5 with 0.15, 0.5 and 1 M KCl; two populations by hydrodynamic radius (dimer, aggregates); number fractions calculated from the scattered intensities. As to conditions: other: dynamic light scattering.
For data set [2], the target named is paramyosin from giant squid (Dosidicus gigas) (giant squid (Dosidicus gigas)). The description is as above.
The target is the same in data set [3]. Nature of the data set: static light scattering; Debye plot, 25°C, 90°, paramyosin 0.01-0.1 mg/ml in PBS pH 7.5 with 0.15, 0.5 and 1.0 M KCl; apparent Mw; monomers to dimer.

For “paramyosin from giant squid (Dosidicus gigas)”, in data set [1], the dimers per aggregate result is reported as “there are ca. 5 dimer paramyosin particles inside an aggregate”. Take “paramyosin from giant squid (Dosidicus gigas) (natural protein)”: the percent of molecules in dimeric form in data set [2] was more than 99%. In data set [3], the stoichiometry N amounted to 2.

A word on the stoichiometry N: it is the number of molecules, sites or subunits per partner or assembly.
